Results: article PMC1525162 (BMC Pharmacology, 2006)
Entries after “also recorded” stand apart in the source; their conditions may differ. One block for each molecule: values may come before it. Bridge positions count the residues as written; N and C are the ends. Ends that are not written are not given here. Peptide text beside a SMILES is read from it.

Key:
CGRP receptor = details: cited from earlier work
Description: Briefly, this 37 amino acid neuropeptide can be divided into two distinct domains based upon its binding and agonistic properties for the receptor. […] Specifically, loss of the disulfide bridge connecting amino acids 2 and 7 negates all biological activity of the endogenous neuropeptide.

[1] = target: CLR-RAMP1 heterodimer with the L24A CLR mutant (UniProt Q16602); assay: radioligand binding; saturation binding: increasing [125I-Tyr]CGRP(8–37) on crude membranes of transiently transfected HEK293T-RAMP1 cells, 37°C, buffer A (20 mM HEPES pH 7.5, […] EGTA, 12.5 mM MgCl2, protease inhibitors) plus 0.1% BSA, 1 μM CGRP for non-specific binding, filtration on GF/C filters
[2] = target: CLR-RAMP1 heterodimer with the L24A,L34A CLR double mutant (UniProt Q16602); assay: as above
[3] = target: CLR-RAMP1 heterodimer with the L34A CLR mutant (UniProt Q16602); assay: as above
[4] = target: CLR-RAMP1 heterodimer, wild type calcitonin-like receptor (CLR) with receptor-activity-modifying protein-1 (RAMP1) (UniProt Q16602); assay: as above
[5] = tested on: wild type and L24A, L34A, L24A,L34A CLR-RAMP1 (HEK293T-RAMP1 cells); assay: cAMP generation, wild type and leucine mutant CLRs compared
[6] = target: wild type CLR-RAMP1 heterodimer (HEK293T-RAMP1 membranes) (Homo sapiens, UniProt O60894+Q16602); assay: Competition radioligand binding, wild type CLR; details: compared to Ki of CGRP
Description: A crude cell membrane preparation was prepared as previously described. Briefly, HEK293T-RAMP1 membranes were prepared by scraping and transferring cells to a 50 mL conical tube using cold HBSS followed with two washings by centrifugation at 1000 × g using cold HBSS. The intact cell pellet was resuspended in 10 mL of 0.25 M sucrose containing a protease inhibitor cocktail consisting of 10μg/mL benzamidine, 10μg/mL leupeptin, and 20μg/mL phenylmethysulfonylfluoride. The cells were disrupted by freezing followed by Dounce homogenization of the thawed suspension using 20 strokes from a loose fitting (B) pestle. This mixture was then centrifuged at 1260 × g for 5 min at 4°C. Buffer A (20 mM HEPES, pH 7.5, 1.4 mM EGTA, 12.5 mM MgCl2, 10μg/mL benzamidine, 10μg/mL leupeptin, and 20μg/mL phenylmethysulfonylfluoride) was added to the supernatant and centrifuged again at 30,000 × g for 15 min at 4°C. The resultant pellet was kept, resuspended in buffer A then centrifuged once more at 30,000 × g for 15 min at 4°C. […] Protein concentrations were measured using the method of Bradford.
The radioligand binding protocol used for this study was performed as previously described. […] Amounts of total and non-specific radiolabel bound to cell membranes were calculated from radioactive counts remaining on the glass fiber filters.

[7] = target: wild type CLR-RAMP1 (transiently transfected HEK293T-RAMP1 cells) (Homo sapiens, UniProt O60894+Q16602); assay: cAMP generation, wild type CLR; format: cell-based
[8] = tested on: L24A, L34A and L24A,L34A CLR-RAMP1 heterodimers versus wild type; assay: Competition/saturation binding, leucine mutant CLRs compared with wild type; parameters: species or system human; details: L34A, L24A,L34A vs wild type CLR
Description: A crude cell membrane preparation was prepared as previously described. Briefly, HEK293T-RAMP1 membranes were prepared by scraping and transferring cells to a 50 mL conical tube using cold HBSS followed with two washings by centrifugation at 1000 × g using cold HBSS. The intact cell pellet was resuspended in 10 mL of 0.25 M sucrose containing a protease inhibitor cocktail consisting of 10μg/mL benzamidine, 10μg/mL leupeptin, and 20μg/mL phenylmethysulfonylfluoride. The cells were disrupted by freezing followed by Dounce homogenization of the thawed suspension using 20 strokes from a loose fitting (B) pestle. This mixture was then centrifuged at 1260 × g for 5 min at 4°C. Buffer A (20 mM HEPES, pH 7.5, 1.4 mM EGTA, 12.5 mM MgCl2, 10μg/mL benzamidine, 10μg/mL leupeptin, and 20μg/mL phenylmethysulfonylfluoride) was added to the supernatant and centrifuged again at 30,000 × g for 15 min at 4°C. The resultant pellet was kept, resuspended in buffer A then centrifuged once more at 30,000 × g for 15 min at 4°C. The final crude membrane pellet was resuspended in buffer A containing 10% glycerol and stored in aliquots at -70°C until used for radioligand binding. Protein concentrations were measured using the method of Bradford.
The radioligand binding protocol used for this study was performed as previously described. […] Binding was stopped by filtering the membranes though Whatman GF/C glass fiber filters, followed by 5 – 5 mL washes with cold buffer B (20 mM HEPES, pH 7.5, 1.4 mM EGTA, 12.5 mM MgCl2) to remove any unbound drug. Amounts of total and non-specific radiolabel bound to cell membranes were calculated from radioactive counts remaining on the glass fiber filters.

[9] = target: T1, CLR-RAMP1 heterodimer with the L24A CLR mutant, Q16602
T1 chain 1: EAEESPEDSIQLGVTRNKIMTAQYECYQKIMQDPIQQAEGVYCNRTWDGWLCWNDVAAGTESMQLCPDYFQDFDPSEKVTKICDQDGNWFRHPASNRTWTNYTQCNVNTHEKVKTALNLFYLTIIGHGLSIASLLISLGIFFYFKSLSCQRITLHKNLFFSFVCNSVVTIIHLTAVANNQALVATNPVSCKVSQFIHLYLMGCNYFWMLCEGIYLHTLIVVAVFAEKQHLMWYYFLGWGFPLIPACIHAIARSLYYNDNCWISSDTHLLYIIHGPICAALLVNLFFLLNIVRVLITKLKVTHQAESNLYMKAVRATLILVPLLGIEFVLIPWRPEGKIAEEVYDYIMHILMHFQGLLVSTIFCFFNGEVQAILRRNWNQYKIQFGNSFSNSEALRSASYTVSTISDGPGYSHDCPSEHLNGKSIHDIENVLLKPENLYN
T1 chain 2: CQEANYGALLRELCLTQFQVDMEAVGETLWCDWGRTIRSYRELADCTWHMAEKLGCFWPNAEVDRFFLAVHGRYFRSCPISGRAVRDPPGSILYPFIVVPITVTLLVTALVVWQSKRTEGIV

[10] = target: T2, CLR-RAMP1 heterodimer with the L24A,L34A CLR double mutant, Q16602
T2 chain 1: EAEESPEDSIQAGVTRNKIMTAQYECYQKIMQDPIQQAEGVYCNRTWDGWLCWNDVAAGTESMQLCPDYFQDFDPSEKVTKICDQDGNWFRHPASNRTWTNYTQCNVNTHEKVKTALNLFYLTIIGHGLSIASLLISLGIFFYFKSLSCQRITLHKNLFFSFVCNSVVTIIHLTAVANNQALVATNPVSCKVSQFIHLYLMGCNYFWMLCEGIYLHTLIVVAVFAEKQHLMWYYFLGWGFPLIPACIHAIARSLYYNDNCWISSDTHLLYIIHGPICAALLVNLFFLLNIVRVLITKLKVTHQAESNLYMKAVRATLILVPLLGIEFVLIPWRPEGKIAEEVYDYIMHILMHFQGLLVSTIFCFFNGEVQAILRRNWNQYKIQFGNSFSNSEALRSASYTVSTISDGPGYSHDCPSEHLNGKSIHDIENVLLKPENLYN
T2 chain 2: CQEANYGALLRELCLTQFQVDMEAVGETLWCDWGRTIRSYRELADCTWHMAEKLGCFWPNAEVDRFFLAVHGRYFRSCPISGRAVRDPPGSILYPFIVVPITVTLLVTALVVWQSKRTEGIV

[11] = target: T3, CLR-RAMP1 heterodimer with the L34A CLR mutant, Q16602
T3 chain 1: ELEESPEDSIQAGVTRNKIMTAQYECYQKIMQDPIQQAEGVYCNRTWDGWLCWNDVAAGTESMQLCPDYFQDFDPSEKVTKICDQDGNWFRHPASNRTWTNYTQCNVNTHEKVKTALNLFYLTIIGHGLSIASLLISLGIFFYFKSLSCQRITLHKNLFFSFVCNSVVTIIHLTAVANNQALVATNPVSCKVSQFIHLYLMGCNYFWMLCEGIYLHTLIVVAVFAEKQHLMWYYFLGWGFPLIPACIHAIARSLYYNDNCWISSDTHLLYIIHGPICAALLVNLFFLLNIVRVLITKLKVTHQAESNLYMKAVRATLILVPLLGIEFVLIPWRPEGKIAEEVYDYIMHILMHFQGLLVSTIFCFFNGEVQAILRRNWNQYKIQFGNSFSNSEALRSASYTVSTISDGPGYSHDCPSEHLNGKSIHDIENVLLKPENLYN
T3 chain 2: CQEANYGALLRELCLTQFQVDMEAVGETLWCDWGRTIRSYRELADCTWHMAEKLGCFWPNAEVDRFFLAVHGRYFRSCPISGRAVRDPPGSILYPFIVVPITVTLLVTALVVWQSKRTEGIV

[12] = target: T4, CLR-RAMP1 heterodimer, wild type calcitonin-like receptor (CLR) with receptor-activity-modifying protein-1 (RAMP1), Q16602
T4 chain 1: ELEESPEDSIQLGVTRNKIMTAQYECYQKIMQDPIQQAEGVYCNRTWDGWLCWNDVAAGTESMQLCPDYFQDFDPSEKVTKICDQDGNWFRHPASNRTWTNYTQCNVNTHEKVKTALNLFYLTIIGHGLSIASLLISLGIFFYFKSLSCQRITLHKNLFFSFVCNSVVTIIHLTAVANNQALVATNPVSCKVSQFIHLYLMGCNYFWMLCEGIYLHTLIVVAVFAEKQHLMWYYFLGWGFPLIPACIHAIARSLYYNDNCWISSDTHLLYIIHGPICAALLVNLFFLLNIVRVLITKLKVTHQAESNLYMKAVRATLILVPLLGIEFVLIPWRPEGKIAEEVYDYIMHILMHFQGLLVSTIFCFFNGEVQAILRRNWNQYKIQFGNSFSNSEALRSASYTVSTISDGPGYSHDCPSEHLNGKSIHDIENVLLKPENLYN
T4 chain 2: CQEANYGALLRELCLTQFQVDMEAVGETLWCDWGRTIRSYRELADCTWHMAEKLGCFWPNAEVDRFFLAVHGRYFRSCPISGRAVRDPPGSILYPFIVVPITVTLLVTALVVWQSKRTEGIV

[13] = target: T1, CLR-RAMP1 heterodimer with the L24A CLR …; assay: radioligand binding; competition: increasing unlabeled peptide against specific [125I-Tyr]CGRP(8–37) binding on crude membranes of transiently transfected HEK293T-RAMP1 cells, same buffer as the saturation binding; Ki from IC50 by the method of Cheng and Prusoff
[14] = target: T2, CLR-RAMP1 heterodimer with the …; assay: as above
[15] = target: T3, CLR-RAMP1 heterodimer with the L34A CLR …; assay: as above
[16] = target: T4, CLR-RAMP1 heterodimer, wild type …; assay: as above

Molecule: des-F37-CGRP: CGRP with deletion of the C-terminal phenylalanine at position 37 (ACDTATCVTHRLAGLLSRSGGVVKNNFVPTNVGSKA-NH2; disulfide 2-7 (inferred); ends not checked; UniProt P06881 83-119, looked up, variant F37*)
- affinity for native receptor compared with endogenous neuropeptide (CGRP receptor; not due to disruption of ligand structure): affinity loss

Molecule: CGRP(8–37)
- CGRP receptor affinity and activity (CGRP receptor; N-terminal truncated peptide): effective CGRP receptor antagonist having a high affinity for the receptor but devoid of any biological activity in itself
- antagonism of cAMP response to CGRP(1–36) ([5]; 1μM CGRP(8–37) preincubated 30 min before 10μM CGRP(1–36), wild type and leucine CLR mutants): abolished the activity of 10μM CGRP(1–36); also recorded: blocked to basal levels

Molecule: CC(C)C[C@H](NC(=O)CNC(=O)[C@H](C)NC(=O)[C@H](CC(C)C)NC(=O)[C@H](CCCNC(=N)N)NC(=O)[C@H](Cc1c[nH]cn1)NC(=O)[C@@H](NC(=O)[C@@H](NC(=O)[C@@H]1CSSC[C@H](NC(=O)[C@H](C)N)C(=O)N[C@@H](CC(=O)O)C(=O)N[C@@H]([C@@H](C)O)C(=O)N[C@@H](C)C(=O)N[C@@H]([C@@H](C)O)C(=O)N1)C(C)C)[C@@H](C)O)C(=O)N[C@@H](CC(C)C)C(=O)N[C@@H](CO)C(=O)N[C@@H](CCCNC(=N)N)C(=O)N[C@@H](CO)C(=O)O [CGRP(1–19)] (H-ACDTATCVTHRLAGLLSRS-OH; disulfide 2-7 (inferred); N-terminus assumed)
- affinity for wild type CLR compared with CGRP [6]: significant loss of CGRP(1–19) affinity
- maximal cAMP response ([7]; CGRP(1–36) compared with CGRP, CGRP(1–19) compared with CGRP(1–36) and CGRP): appreciably less
- cAMP potency compared with CGRP, wild type ([7]; compared to CGRP): considerably less; also recorded: significantly less
- affinity at leucine mutants compared with wild type [8]: analogous to values calculated for all leucine CLR mutations
- cAMP potency at leucine mutants compared with wild type ([5]; L24A, L34A, L24A,L34A vs wild type CLR): no different; also recorded: no significant potency differences

Results, then the molecule that gave them:

- Kd [1]: 9 nM
- Kd [2]: 9 nM
- Kd [3]: 9 nM
- Kd [4]: 0.9 nM
Molecule: [125I-Tyr]CGRP(8–37) (peptide)

- EC50 of cAMP generation in transiently transfected HEK293T-RAMP1 cells [9]: 2400 nM
- EC50 of cAMP generation in transiently transfected HEK293T-RAMP1 cells [10]: 1600 nM
- EC50 of cAMP generation in transiently transfected HEK293T-RAMP1 cells [11]: 2200 nM
- EC50 of cAMP generation in transiently transfected HEK293T-RAMP1 cells [12]: 2100 nM
- Ki [13]: > 10000 nM
- Ki [14]: > 10000 nM
- Ki [15]: > 10000 nM
- Ki [16]: > 10000 nM
B1: CGRP(1–19) (peptide)
chain: ACDTATCVTHRLAGLLSRS
modifications: not checked
